The target in experiment [1] is T1, Kap114p (S. cerevisiae, UniProt P53067 1-1004).
T1 sequence (looked up): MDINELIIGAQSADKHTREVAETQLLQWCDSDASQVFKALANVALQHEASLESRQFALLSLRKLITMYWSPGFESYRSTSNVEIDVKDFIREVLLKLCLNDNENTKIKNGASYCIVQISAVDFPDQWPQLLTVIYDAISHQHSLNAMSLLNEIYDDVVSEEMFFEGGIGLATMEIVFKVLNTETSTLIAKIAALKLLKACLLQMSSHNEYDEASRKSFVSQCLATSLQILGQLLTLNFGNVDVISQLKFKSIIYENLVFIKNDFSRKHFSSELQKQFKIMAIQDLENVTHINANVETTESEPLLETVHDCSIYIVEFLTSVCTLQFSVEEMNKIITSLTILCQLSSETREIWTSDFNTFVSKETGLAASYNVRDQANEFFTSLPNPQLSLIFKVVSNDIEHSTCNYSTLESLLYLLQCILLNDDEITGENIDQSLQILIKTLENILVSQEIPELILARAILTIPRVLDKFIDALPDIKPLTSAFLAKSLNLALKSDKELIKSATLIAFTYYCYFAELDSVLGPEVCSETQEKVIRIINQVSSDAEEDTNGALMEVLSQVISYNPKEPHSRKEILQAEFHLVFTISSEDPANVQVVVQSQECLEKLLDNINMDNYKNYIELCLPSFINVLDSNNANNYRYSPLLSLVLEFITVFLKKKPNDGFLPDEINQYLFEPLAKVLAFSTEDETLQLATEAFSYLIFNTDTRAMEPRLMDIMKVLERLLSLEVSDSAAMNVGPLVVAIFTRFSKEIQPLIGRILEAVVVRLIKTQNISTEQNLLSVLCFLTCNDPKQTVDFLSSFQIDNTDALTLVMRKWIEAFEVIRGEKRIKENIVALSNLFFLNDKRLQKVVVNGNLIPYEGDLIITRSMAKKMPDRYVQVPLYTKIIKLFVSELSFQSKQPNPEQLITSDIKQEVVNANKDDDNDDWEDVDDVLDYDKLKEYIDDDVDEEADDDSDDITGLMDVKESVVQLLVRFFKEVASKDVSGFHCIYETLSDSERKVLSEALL
Description: AUC.

Experiment [2] addresses T2, Kap95p (S. cerevisiae, UniProt Q06142 1-861).
T2 sequence (looked up): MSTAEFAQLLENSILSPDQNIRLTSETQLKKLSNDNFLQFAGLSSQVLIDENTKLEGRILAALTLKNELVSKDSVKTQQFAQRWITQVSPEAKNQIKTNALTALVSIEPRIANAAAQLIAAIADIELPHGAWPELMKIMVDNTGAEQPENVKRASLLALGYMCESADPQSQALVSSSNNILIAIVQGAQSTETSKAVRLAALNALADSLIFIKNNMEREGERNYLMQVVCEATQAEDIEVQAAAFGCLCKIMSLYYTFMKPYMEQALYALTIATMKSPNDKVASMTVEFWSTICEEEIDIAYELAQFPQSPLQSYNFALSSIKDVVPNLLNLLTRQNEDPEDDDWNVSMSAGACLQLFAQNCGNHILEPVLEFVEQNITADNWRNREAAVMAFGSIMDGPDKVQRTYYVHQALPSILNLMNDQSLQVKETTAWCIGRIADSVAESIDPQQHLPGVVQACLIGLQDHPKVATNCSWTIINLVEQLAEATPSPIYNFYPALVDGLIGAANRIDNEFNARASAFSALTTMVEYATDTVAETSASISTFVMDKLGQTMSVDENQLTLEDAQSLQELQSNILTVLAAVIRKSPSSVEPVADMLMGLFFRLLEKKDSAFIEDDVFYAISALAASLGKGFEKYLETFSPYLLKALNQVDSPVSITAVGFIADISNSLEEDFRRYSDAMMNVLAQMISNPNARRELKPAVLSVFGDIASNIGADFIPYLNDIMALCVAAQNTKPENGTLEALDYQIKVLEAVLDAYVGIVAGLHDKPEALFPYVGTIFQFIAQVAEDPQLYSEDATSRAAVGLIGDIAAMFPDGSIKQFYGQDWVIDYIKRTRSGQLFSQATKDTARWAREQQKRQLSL
Nature of the experiment: ITC.

Experiment [3] has as its target T3, Kap114p (Δ899-956) (S. cerevisiae, UniProt P53067 1-1004, Δ899-956).
T3 sequence (looked up): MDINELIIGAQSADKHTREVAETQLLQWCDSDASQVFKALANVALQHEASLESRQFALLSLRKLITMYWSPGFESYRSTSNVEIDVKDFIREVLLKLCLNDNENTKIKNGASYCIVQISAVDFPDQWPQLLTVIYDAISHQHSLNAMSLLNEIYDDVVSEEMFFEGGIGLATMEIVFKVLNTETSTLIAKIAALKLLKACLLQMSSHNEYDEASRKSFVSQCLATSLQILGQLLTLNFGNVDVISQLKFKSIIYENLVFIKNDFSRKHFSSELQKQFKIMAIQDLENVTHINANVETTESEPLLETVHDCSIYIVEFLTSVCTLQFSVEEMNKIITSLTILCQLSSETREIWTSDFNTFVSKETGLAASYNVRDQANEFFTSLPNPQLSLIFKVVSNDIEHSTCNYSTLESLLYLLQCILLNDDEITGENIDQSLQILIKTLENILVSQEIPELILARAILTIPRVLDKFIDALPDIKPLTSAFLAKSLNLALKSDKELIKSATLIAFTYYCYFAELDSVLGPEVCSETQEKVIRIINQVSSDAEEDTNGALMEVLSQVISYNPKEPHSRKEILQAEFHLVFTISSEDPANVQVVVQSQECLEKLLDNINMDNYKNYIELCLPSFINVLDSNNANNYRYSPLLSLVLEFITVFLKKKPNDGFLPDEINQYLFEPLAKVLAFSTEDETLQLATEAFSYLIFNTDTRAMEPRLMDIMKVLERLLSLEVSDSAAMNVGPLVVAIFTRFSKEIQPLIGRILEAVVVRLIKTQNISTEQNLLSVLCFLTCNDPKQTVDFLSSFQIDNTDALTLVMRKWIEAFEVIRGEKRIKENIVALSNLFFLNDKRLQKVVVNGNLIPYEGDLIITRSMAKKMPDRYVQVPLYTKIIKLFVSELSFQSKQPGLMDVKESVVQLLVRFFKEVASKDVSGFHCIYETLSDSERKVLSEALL
Nature of the experiment: ITC. (Isothermal titration calorimetry measures the heat released or taken up as one component is titrated into another.)

From article doi:10.1101/411223 (bioRxiv, 2018) come the findings set out here.

Usually stoichiometry N stands for the number of molecules, sites or subunits per partner or assembly. As a reminder, the Kd is the constant that tells how readily two partners part at equilibrium. Read a high Kd as weaker binding.

B1: yTBP (61-240) (domain or fragment, S. cerevisiae, UniProt P13393 61-240, looked up)
chain: SGIVPTLQNIVATVTLGCRLDLKTVALHARNAEYNPKRFAAVIMRIREPKTTALIFASGKMVVTGAKSEDDSKLASRKYARIIQKIGFAAKFTDFKIQNIVGSCDVKFPIRLEGLAFSHGTFSSYEPELFPGLIYRMVKPKIVLLIFVSGKIVLTGAKQREEIYQAFEAIYPVLSEFRKM
Consider B1, for which, in experiment [1], the “stoichiometry N” value amounted to 1. In experiment [2], this molecule came in with a Kd of around 10 µM. In addition, the binding result in experiment [3] is “binds”.
